Assay results from patent US20210180062.

Substance	GAP activity (reduction of GTP-bound small G protein, pull-down with effector-domain beads) (Rap1)	GAP activity (reduction of GTP-bound small G protein, pull-down with effector-domain beads) (Ras)	GAP activity (reduction of GTP-bound small G protein, pull-down with effector-domain beads) (Rac1)
SynGAP γ (isoform construct co-transfected in the small GTPase assay)	SynGAP β and γ has mild preference towards Rap1		
SynGAP α1 (isoform construct co-transfected in the small GTPase assay)		SynGAP α1 and α2 has mild preference towards Ras rather than Rap	
SynGAP α2 (isoform construct co-transfected in the small GTPase assay)		SynGAP α1 and α2 has mild preference towards Ras rather than Rap	
SynGAP β (isoform construct co-transfected in the small GTPase assay)		SynGAP β generally has highest GAP activity into all small G proteins among other isoforms	SynGAP β generally has highest GAP activity into all small G proteins among other isoforms
